In patent publication US20130243795A1 (Janssen / Centocor, published 2013):

T1: Human CD27 ECD truncated (ECD 1-121, cleavage site, His6) (human)
T1 construct: also called human CD27 ECD with His Tag; CD27-His
T1 chain: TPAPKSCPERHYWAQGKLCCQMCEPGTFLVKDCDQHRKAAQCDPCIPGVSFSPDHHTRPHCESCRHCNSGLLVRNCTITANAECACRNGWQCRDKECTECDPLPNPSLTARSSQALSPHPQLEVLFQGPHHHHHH


How the values were obtained:
[1] = biological target: T1, Human CD27 ECD truncated (ECD 1-121, …); experiment: ProteOn SPR, culture supernatants
[2] = biological target: T1, Human CD27 ECD truncated (ECD 1-121, …); experiment: ProteOn SPR, purified mAb, CD27-His
Procedure: Purified mAbs were analyzed for affinity to CD27-His on ProteOn.

Row | Binder | Kd [1] | Kd [2] | koff [2] | kon [2]
1 | M159 (antibody, human IgG4, V domains shown, also called H25,L220; parental mAb) VH: QVQLVQSGAEVKKPGASVKVSCKASGYAFSSSWMNWVRQAPGQGLEWMGRIYPGDGDTNYNGKFKGRVTMTRDTSTSTVYMELSSLRSEDTAVYYCARSDYYGDYGFAYWGQGTLVTVSS VL: DIQMTQSPSSLSASVGDRVTITCKASQSVDYAGDSYMNWYQQKPGKAPKLLIYAASNLESGVPSRFSGSGSGTDFTLTISSLQPEDFATYYCQQSNEDPYTFGQGTKVEIK | 2230 pM |  |  | 
2 | M673 (antibody, V domains shown, isotype not restated (path 2); also called H256,L217) VH: QVQLVQSGAEVKKPGASVKVSCKASGYAFSSSWMNWVRQAPGQGLEWMGRIYSGDADTNYNQKFKGRVTMTRDTSTSTVYMELSSLRSEDTAVYYCARSDYYGDYGFAYWGQGTLVTVSS VL: DIQMTQSPSSLSASVGDRVTITCKASQSVDYAHESFMNWYQQKPGKAPKLLIYAASNLESGVPSRFSGSGSGTDFTLTISSLQPEDFATYYCQQSNEDPYTFGQGTKVEIK |  | 100 pM | 0.000189 s⁻¹ | 1.89e+06 M⁻¹ s⁻¹
3 | M150 (antibody, human IgG4, V domains shown, also called H25,L218) VH: QVQLVQSGAEVKKPGASVKVSCKASGYAFSSSWMNWVRQAPGQGLEWMGRIYPGDGDTNYNGKFKGRVTMTRDTSTSTVYMELSSLRSEDTAVYYCARSDYYGDYGFAYWGQGTLVTVSS VL: DIQMTQSPSSLSASVGDRVTITCKASQSVDYFGDSLMNWYQQKPGKAPKLLIYAASNLESGVPSRFSGSGSGTDFTLTISSLQPEDFATYYCQQSNEDPYTFGQGTKVEIK | 4040 pM |  |  | 

Continued, values first:

Row | Kd [1] | Kd [2] | koff [2] | kon [2] | Binder
4 |  | 144 pM | 0.000264 s⁻¹ | 1.83e+06 M⁻¹ s⁻¹ | M672 (antibody, V domains shown, isotype not restated (path 2); also called H255,L217) VH: QVQLVQSGAEVKKPGASVKVSCKASGYAFSSSWMNWVRQAPGQGLEWMGRIYSGDADTNYAQKFKGRVTMTRDTSTSTVYMELSSLRSEDTAVYYCARSDYYGDYGFAYWGQGTLVTVSS VL: DIQMTQSPSSLSASVGDRVTITCKASQSVDYAHESFMNWYQQKPGKAPKLLIYAASNLESGVPSRFSGSGSGTDFTLTISSLQPEDFATYYCQQSNEDPYTFGQGTKVEIK
5 | 1070 pM |  |  |  | M151 (antibody, human IgG4, V domains shown, also called H25,L224) VH: QVQLVQSGAEVKKPGASVKVSCKASGYAFSSSWMNWVRQAPGQGLEWMGRIYPGDGDTNYNGKFKGRVTMTRDTSTSTVYMELSSLRSEDTAVYYCARSDYYGDYGFAYWGQGTLVTVSS VL: DIQMTQSPSSLSASVGDRVAITCKASQSVDYYNSSFMNWYQQKPGKAPKLLIYAASNLESGVPSRFSGSGSGTDFTLTISSLQPEDFATYYCQQSNEDPYTFGQGTKVEIK
6 |  | 65 pM | 0.000113 s⁻¹ | 1.73e+06 M⁻¹ s⁻¹ | M670 (antibody, V domains shown, isotype not restated (path 2); also called H257,L266) VH: EVQLVQSGAEVKKPGESLKISCKGSGYAFSSSWMNWVRQMPGKGLEWMGRIYSGDADTNYAQKFKGQVTISADKSISTAYLQWSSLKASDTAMYYCARSDYYGDYGFAYWGQGTLVTVSS VL: DIQMTQSPSSLSASVGDRVTITCKASQSVDYAGESFMNWYQQKPGKAPKLLIYAASNLESGVPSRFSGSGSGTDFTLTISSLQPEDFATYYCQQSNEDPYTFGQGTKVEIK
7 | 1540 pM |  |  |  | M152 (antibody, human IgG4, V domains shown, also called H25,L223) VH: QVQLVQSGAEVKKPGASVKVSCKASGYAFSSSWMNWVRQAPGQGLEWMGRIYPGDGDTNYNGKFKGRVTMTRDTSTSTVYMELSSLRSEDTAVYYCARSDYYGDYGFAYWGQGTLVTVSS VL: DIQMTQSPSSLSASVGDRVTITCKASQSVDYWSDSFMNWYQQKPGKAPKLLIYAASNLESGVPSRFSGSGSGTDFTLTISSLQPEDFATYYCQQSNEDPYTFGQGTKVEIK
8 |  | 58 pM | 0.000145 s⁻¹ | 2.49e+06 M⁻¹ s⁻¹ | M669 (antibody, V domains shown, isotype not restated (path 2); also called H256,L266) VH: QVQLVQSGAEVKKPGASVKVSCKASGYAFSSSWMNWVRQAPGQGLEWMGRIYSGDADTNYNQKFKGRVTMTRDTSTSTVYMELSSLRSEDTAVYYCARSDYYGDYGFAYWGQGTLVTVSS VL: DIQMTQSPSSLSASVGDRVTITCKASQSVDYAGESFMNWYQQKPGKAPKLLIYAASNLESGVPSRFSGSGSGTDFTLTISSLQPEDFATYYCQQSNEDPYTFGQGTKVEIK
